Changes are numbered by the printed parent chain. Numbers in names are those of the source. Where two headings read alike, the source gives them in different places.
What was measured:
[1] = Fluorescence change of labelled PBP on Pi binding; conditions: for fluorescence increase with Pi: Pi-bound vs Pi-free, typical product, 10 mM PIPES pH 7.0
Description: Fluorescence spectra were obtained under the same conditions. Excitation was at 555 nm. The fluorescence signals were normalised to 100%, representing the maximum intensity in the presence of Pi.

[2] = Fluorescence titration of labelled PBP with Pi (binding capacity); conditions: 20° C.
Protocol: This fluorescence represents the value when approximately Pi-free. The lines shown in FIG. 3 are a best fit to data from 0 to 4 μM added Pi, and a horizontal line.

[3] = Stopped-flow association kinetics of Pi with rhodamine-PBP; format: binding
Description: A stopped-flow apparatus was used to determine association and dissociation kinetics of Pi from rhodamine-PBP.
A representative set of fluorescence traces is shown in FIG. 4A, all normalized to 100% for the initial intensity, but offset by 15% from each other. As the concentration of Pi and the rate increase, a significant proportion of the fluorescence trace is lost in the dead time of the stopped-flow instrument, causing an apparent decrease in intensity.
It is apparent that the rate reaches a limiting high value. This can be interpreted in terms of a two-step mechanism, binding itself (step 1), then a conformation change (step 2):
The fluorescence change occurs in step 2 and is likely to be concomitant with the closure of the binding cleft. It is this process that limits the overall rate at high Pi concentration. The data in FIG. 4B fitted to a hyperbola give 1/K1=2.2 μM and k+2+k−2=267 s^−1 (at 10° C.).

[4] = Stopped-flow dissociation kinetics of Pi from rhodamine-PBP; conditions: 10° C.
Protocol: Absorbance spectra were obtained using a Beckman DU640 spectrophotometer. Fluorescence measurements were obtained on a Perkin Elmer LS50B or Cary Eclipse fluorimeter with xenon lamp. Stopped flow experiments were carried out on a HiTech SF61MX apparatus, with a mercury-xenon lamp and HiTech IS-2 software, a monochromator and 4 mm slits on the excitation light (550 nm for rhodamine) and a 570 nm cut-off filter on the emission. The stated concentrations are those in the mixing chamber, unless stated otherwise.
0.25 unit mL^−1 PNPase and 100 μM 7-methylguanosine were present with the wild-type PBP to ensure that it was free of Pi prior to mixing.

[5] = similar titration, reference 25; cited from earlier work

B1: rhodamine-PBP: E. coli PBP Ala17Cys/Ala197Cys (17/197) mutant doubly labelled with 6-IATR (conjugate, UniProt P0AG82 26-346, looked up, variant A17C A197C)
Phosphate-binding protein PstS: EASLTGAGATFPAPVYCKWADTYQKETGNKVNYQGIGSSGGVKQIIANTVDFGASDAPLSDEKLAQEGLFQFPTVIGGVVLAVNIPGLKSGELVLDGKTLGDIYLGKIKKWDDEAIAKLNPGLKLPSQNIAVVRRADGSGTSFVFTSYLAKVNEEWKNNVGTGSTVKWPIGLGGKGNDGIAAFVQRLPGAIGYVEYCYAKQNNLAYTKLISADGKPVSPTEENFANAAKGADWSKTFAQDLTNQKGEDAWPITSTTFILIHKDQKKPEQGTEVLKFFDWAYKTGAKQANDLDYASLPDSVVEQVRAAWKTNIKDSSGKPLY
modifications: doubly labelled with 6-IATR rhodamine
notes: E. coli PBP Ala17Cys/Ala197Cys (17/197) mutant doubly labelled with 6-IATR
[1]
  fluorescence increase with Pi: 18 fold
[1]; emission at 578 nm (λmax), depends on purity of doubly labelled species, listed as A17C-A197C
  fluorescence increase with Pi, maximum / best batch: up to 30 fold
[2]
  binding capacity for Pi: ~100%
[3]; hyperbola fit, 10° C., 10 mM PIPES pH 7.0
  k+2+k−2 (conformation change step 2): 267 s⁻¹
[3]; hyperbola fit, 10° C., 10 mM PIPES pH 7.0, read-out: 1/K1 (binding step 1)
  Kd: 2200 nM
[3]; rhodamine-PBP at 10° C. vs MDCC-PBP at 5° C.
  association kinetics compared with MDCC-PBP: slower than that found with MDCC-PBP at 5 °C
[4]; best fit exponential, excess 10 μM wild-type PBP
  Pi dissociation rate: 6.6 s⁻¹
[4]; read-out: overall dissociation constant k−2/k+2K1, from association and dissociation kinetics
  Kd: 60 nM

B2: K229C-E302C: E. coli PBP Lys-229/Glu-302 to Cys double mutant, doubly labelled with 6-IATR (conjugate, UniProt P0AG82 26-346, looked up, variant K229C E302C)
Phosphate-binding protein PstS: B1 Phosphate-binding protein PstS with C17A, C197A, K229C, E302C
modifications: 6-IATR labels
notes: E. coli PBP Lys-229/Glu-302 to Cys double mutant, doubly labelled with 6-IATR
[2]
  binding capacity for Pi: ~100%

B3: RRC2M: here the product of A17C-A197C mutant PBP labelled with the maleimide Rhodamine Red C2 (conjugate, UniProt P0AG82 26-346, looked up, variant A17C A197C)
Phosphate-binding protein PstS: B1 Phosphate-binding protein PstS
modifications: Rhodamine Red C2 maleimide labels
[1]
  fluorescence increase with Pi: little fluorescence change

B4: MDCC-PBP: prior-art MDCC-labelled PBP, label linked via a chiral centre on a succinimide (conjugate, UniProt P0AG82 26-346, looked up)
Phosphate-binding protein PstS: B1 Phosphate-binding protein PstS with C17A, C197A
modifications: MDCC fluorophore label
notes: prior-art MDCC-labelled PBP, label linked via a chiral centre on a succinimide
[5]
  binding capacity for Pi: 75%

From patent US8188225B2, “Inorganic phosphate assays” (Medical Research Council, priority 2005, dated 2012)
